Data reported in the RNAGym collection of RNA variant scans (doi:10.1073/pnas.2313332121).

B1: TPR t1 (parent)
chain: GACCAAUCUGCCCUCAGAGCUCGAGAACAUCUUCGGAUGCAGAGGAGGCAGGCUUCGGUGGCGCGAUAGCGCCAACGUCCUCAACCUCCAAUGCAUCCCACCACAUGAUGAUGCCUGAAGAGCCUUGGUUUUUUG

Variants of: B1
Experiment: polymerase ribozyme fitness, log enrichment relative to wild type (log ratio); higher = more active; in vitro selection for triplet polymerase activity
In short: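 Mutant libraries of each subunit of a heterodimeric triplet polymerase ribozyme were built by PCR and transcribed. Each library went through one round of in vitro selection in triplicate: annealing with biotinylated primer, partner subunit and triplets, frozen incubation at −7 °C, gel excision of extended constructs, streptavidin-bead capture and RT-PCR. Input and output libraries were Illumina-sequenced; only genotypes with ≥10 input reads and ≥1 read per output were kept. Fitness is log2(genotype enrichment/wild-type enrichment), using inverse-variance-weighted replicate averages.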

Variant | polymerase ribozyme fitness (log ratio)
C104A U130A | -2.46
C101A G117C A121U | -4.18
C97G U130G | -4.67
G107U G113U | -6.69
G107A U132A | -5.08
C99A | -6.24
C99G | -7.03
C99U | -3.02
C101U G117U | -1.13
G110C | -3.75
G110A | -0.79
G110C C114U | -4.33
C102U G122A | -2.08
A108G C115U | -3.36
C101A U112A | 0.611
A103U A118G | -5.56
A103U A118U | -4.32
U106C U132A | -0.182
C104A C114A | -4.74
C98U U129C | -1.46
G110C G135C | -4.01

Variant | polymerase ribozyme fitness (log ratio)
C97U U112G U116A U129C | -4.3
A105C G110A C115U A119G | -6.05
C97G C115G G120C | -5.54
C99U U133G | -2.59
C99U U129G | -3.83
U106A U125G | -0.507
A105C U130C | -1.55
C101U G120U | -1.36
C101U G120C | -0.354
A103C A111U U116C | -4.99
C97U U116G G135U | -3.49
C104U A118G | 0.462
C104U A111G | 0.178
A105U U125A | -2.77
A103G | -3.07
A103U | -4.71
A103C | -5.01
A103U A119G | -4.5
C98U G110C U131A | -5.64
G110C G127U | -2.52
U106C | -0.282

Variant | polymerase ribozyme fitness (log ratio)
U106G | -1.17
U106A | 0.145
U106G G107A U133A | -5.4
C101A G135U | -2.11
C101G U133A | -1.55
A105G U132A | -1.89
A100U G120U | -1.23
C101U C102G | -6.19
C99U C101A A121G C124G | -3.31
C101G A121C | -0.583
C104U U129C | -0.415
C102U U109G | -5.46
U106C U125A | -0.83
C98U U112G | -3.32
U109A U134G | -5.32
C101A A105G | -3.13
C104A U106A | -2.51
U106A G135U | -0.228
C99U U130A | -3.71
C97U A105C | -4.58
C101A G107A | -5.93

Variant | polymerase ribozyme fitness (log ratio)
C99A C124A | -4.35
C104A A119U | -2.35
C102U A119U C123A U126A | -2.22
C99A C123U | -6.27
U109A U133A | -5.88
C104U G122A | 0.442
C102U C114G | -4.58
C102U C114A | -3.75
A103G U112C | -3.53
C102A U106G | -4.52
U109A C114U A121C | -4.32
C101A U109A | -5.05
C97G C101U A121C | -2.97
C98U U130G | -0.947
C101A U131G | -1.9
C97G U129A | -5.28
A103C G120U | -4.69
A103C G120A | -3.52
A105G A121C | -0.542
U106C U116A | -2.94
